Assay results: paper PMC8939769

How the values were obtained:
[1] = target: SARS-CoV-2 S trimer (S2P ectodomain protein) (SARS-CoV-2) (UniProt P0DTC2); experiment: not stated; binding kinetics (ka, kd, KD) on the SARS-CoV-2 S trimer (S2P ectodomain protein); representative of at least two independent assays; assay details in the Supplementary materials
[2] = target: SARS-CoV-2 S trimer (S2P ectodomain protein) (SARS-CoV-2) (UniProt P0DTC2)

Work on “AZD7442 (combination of AZD8895 and AZD1061)” yielded a Kd [1] of 0.0137 nM and a neutralization of the USA-WA1/2020 strain of SARS-CoV-2 in vitro, IC50 [2] of 10 ng/mL.
